Test results taken from the supplement of paper PMC9112550, “Optimization of the antimicrobial peptide Bac7 by deep mutational scanning” (BMC Biology, 2022).

system: Escherichia coli TOP10; test: shrunken log2 fold change of peptide-encoding DNA abundance (4.5 h post-induction vs induction); higher = less antimicrobial activity (less host growth inhibition); conditions: time post-induction: 4.5 h; library: site-saturation at positions 5, 18, 19, 20
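Further: peptides expressed intracellularly from a pBAD plasmid library in pooled LB shake-flask culture, induced with 0.3% L-arabinose, DNA abundance read by NGS, three biological replicates, DESeq2 with apeglm shrinkage.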

Sequence	shrunken log2 fold change
RRIRIRPPRLPRPRPRPTKAPRP	-0.162
RRIRNRPPRLPRPRPRPPCVPRP	0.0341
RRIRQRPPRLPRPRPRPQRPPRP	0.0996
RRIRARPPRLPRPRPRPIKFPRP	-0.126
RRIRPRPPRLPRPRPRPWIIPRP	-0.919
RRIRFRPPRLPRPRPRPGQNPRP	0.0186
RRIRFRPPRLPRPRPRPSENPRP	-0.458
RRIRGRPPRLPRPRPRPQDIPRP	-0.398
RRIRPRPPRLPRPRPRPYIRPRP	-0.297
RRIRNRPPRLPRPRPRPWDYPRP	-0.0686
RRIRDRPPRLPRPRPRPLLLPRP	0.468
RRIRKRPPRLPRPRPRPIAFPRP	-0.0784
RRIRCRPPRLPRPRPRPDCSPRP	0.072
RRIRARPPRLPRPRPRPNVTPRP	0.17
RRIRCRPPRLPRPRPRPRCHPRP	0.0572
RRIRGRPPRLPRPRPRPYLWPRP	0.146
RRIRSRPPRLPRPRPRPRTTPRP	0.318
RRIRRRPPRLPRPRPRPTWHPRP	0.429
RRIRPRPPRLPRPRPRPIWFPRP	-0.0151
RRIRKRPPRLPRPRPRPFDIPRP	-0.0132
RRIRTRPPRLPRPRPRPNQIPRP	-0.469
RRIRYRPPRLPRPRPRPYAQPRP	-1.36
RRIRERPPRLPRPRPRPCPQPRP	-0.232
RRIRNRPPRLPRPRPRPCWQPRP	-0.0118
RRIRYRPPRLPRPRPRPLNCPRP	-0.295

Sequence	shrunken log2 fold change
RRIRWRPPRLPRPRPRPNMMPRP	0.00802
RRIRLRPPRLPRPRPRPDCYPRP	-0.558
RRIRWRPPRLPRPRPRPTWWPRP	0.79
RRIRARPPRLPRPRPRPWPSPRP	-0.0645
RRIRRRPPRLPRPRPRPFHGPRP	-0.17
RRIRFRPPRLPRPRPRPAMVPRP	-0.149
RRIRKRPPRLPRPRPRPNNFPRP	-0.0233
RRIRARPPRLPRPRPRPVCAPRP	0.571
RRIRKRPPRLPRPRPRPFYNPRP	-0.695
RRIRGRPPRLPRPRPRPAYFPRP	0.235
RRIRHRPPRLPRPRPRPFNHPRP	-0.372
RRIRHRPPRLPRPRPRPKKMPRP	-0.132
RRIRGRPPRLPRPRPRPVANPRP	0.623
RRIRFRPPRLPRPRPRPIKGPRP	-0.248
RRIRCRPPRLPRPRPRPTTMPRP	0.722
RRIRNRPPRLPRPRPRPKKSPRP	0.129
RRIRPRPPRLPRPRPRPFMIPRP	0.471
RRIRTRPPRLPRPRPRPRKTPRP	0.111
RRIRYRPPRLPRPRPRPLVVPRP	-0.72
RRIRFRPPRLPRPRPRPNNYPRP	-0.539
RRIRPRPPRLPRPRPRPEPNPRP	0.293
RRIRRRPPRLPRPRPRPICPPRP	-0.0986
RRIRRRPPRLPRPRPRPALRPRP	0.648
RRIRKRPPRLPRPRPRPDVWPRP	0.679
RRIRTRPPRLPRPRPRPEAYPRP	-0.12

Sequence	shrunken log2 fold change
RRIRFRPPRLPRPRPRPNGQPRP	-0.0712
RRIRHRPPRLPRPRPRPKIFPRP	-0.0798
RRIRSRPPRLPRPRPRPCLPPRP	-0.133
RRIRCRPPRLPRPRPRPEMTPRP	0.517
RRIRDRPPRLPRPRPRPKDQPRP	-0.111
RRIRYRPPRLPRPRPRPKEKPRP	-0.0829
RRIRMRPPRLPRPRPRPSTDPRP	0.949
RRIRYRPPRLPRPRPRPHETPRP	-0.0345
RRIRERPPRLPRPRPRPILLPRP	-0.336
RRIRTRPPRLPRPRPRPLVGPRP	0.131
RRIRIRPPRLPRPRPRPFISPRP	-1.43
RRIRKRPPRLPRPRPRPIMTPRP	-0.111
RRIRVRPPRLPRPRPRPYGTPRP	-0.13
RRIRFRPPRLPRPRPRPSPQPRP	0.0415
RRIRCRPPRLPRPRPRPGPDPRP	0.359
RRIRWRPPRLPRPRPRPREWPRP	1.22
RRIRGRPPRLPRPRPRPRSEPRP	0.29
RRIRLRPPRLPRPRPRPIKSPRP	-0.202
RRIRLRPPRLPRPRPRPNGKPRP	-0.0324
RRIRYRPPRLPRPRPRPQVPPRP	-0.124
RRIRGRPPRLPRPRPRPYIPPRP	-0.801
RRIRSRPPRLPRPRPRPPIEPRP	0.314
RRIRLRPPRLPRPRPRPTRMPRP	0.513
RRIRHRPPRLPRPRPRPTFHPRP	-0.326
RRIRQRPPRLPRPRPRPEEEPRP	0.00797

Sequence	shrunken log2 fold change
RRIRARPPRLPRPRPRPDNYPRP	0.0577
RRIRDRPPRLPRPRPRPKSQPRP	0.231
RRIRQRPPRLPRPRPRPWTYPRP	0.0804
RRIRYRPPRLPRPRPRPPTDPRP	-0.181
RRIRTRPPRLPRPRPRPRLCPRP	0.317
RRIRERPPRLPRPRPRPMWIPRP	-0.102
RRIRNRPPRLPRPRPRPWLTPRP	-0.0905
RRIRFRPPRLPRPRPRPCYVPRP	-0.0693
RRIRGRPPRLPRPRPRPDGRPRP	0.169
RRIRLRPPRLPRPRPRPIPPPRP	0.0351
RRIRSRPPRLPRPRPRPYVDPRP	-0.594
RRIRLRPPRLPRPRPRPINHPRP	-0.654
RRIRRRPPRLPRPRPRPNNEPRP	-0.246
RRIRWRPPRLPRPRPRPPPTPRP	1.59
RRIRTRPPRLPRPRPRPYWNPRP	-0.343
RRIRGRPPRLPRPRPRPVLEPRP	0.795
RRIRDRPPRLPRPRPRPPSTPRP	-0.0415
RRIRHRPPRLPRPRPRPQWGPRP	-0.149
RRIRARPPRLPRPRPRPYMNPRP	-0.337
RRIRFRPPRLPRPRPRPGDCPRP	-0.0759
RRIRMRPPRLPRPRPRPETRPRP	0.925
RRIRDRPPRLPRPRPRPVMEPRP	0.532
RRIRKRPPRLPRPRPRPRPRPRP	1.01
RRIRRRPPRLPRPRPRPVGYPRP	0.02
RRIRSRPPRLPRPRPRPNAWPRP	-0.0228

Sequence	shrunken log2 fold change
RRIRVRPPRLPRPRPRPLTTPRP	-0.219
RRIRTRPPRLPRPRPRPNHYPRP	-0.679
RRIRKRPPRLPRPRPRPYHIPRP	-0.323
RRIRWRPPRLPRPRPRPDRDPRP	0.0716
RRIRQRPPRLPRPRPRPHFMPRP	-0.0158
RRIRLRPPRLPRPRPRPCGTPRP	-0.0819
RRIRQRPPRLPRPRPRPGGSPRP	-0.141
RRIRRRPPRLPRPRPRPYWFPRP	-0.299
RRIRMRPPRLPRPRPRPWIEPRP	-0.092
RRIRYRPPRLPRPRPRPLNVPRP	0.0468
RRIRMRPPRLPRPRPRPLDQPRP	1.12
RRIRNRPPRLPRPRPRPLMDPRP	0.0545
RRIRVRPPRLPRPRPRPNCSPRP	0.0892
RRIRFRPPRLPRPRPRPIECPRP	-0.00174
RRIRGRPPRLPRPRPRPSSCPRP	0.316
RRIRIRPPRLPRPRPRPFIWPRP	-0.242
RRIRDRPPRLPRPRPRPPDLPRP	0.201
RRIRERPPRLPRPRPRPMYFPRP	-0.251
RRIRARPPRLPRPRPRPWDTPRP	0.0787
RRIRDRPPRLPRPRPRPRKSPRP	-0.0168
RRIRGRPPRLPRPRPRPVYHPRP	-0.174
RRIRSRPPRLPRPRPRPFRTPRP	-0.318
RRIRWRPPRLPRPRPRPVDYPRP	0.0136
RRIRPRPPRLPRPRPRPFNMPRP	-0.949
RRIRFRPPRLPRPRPRPNPRPRP	0.427

Sequence	shrunken log2 fold change
RRIRGRPPRLPRPRPRPLYDPRP	0.135
RRIRMRPPRLPRPRPRPILWPRP	0.00288
RRIRLRPPRLPRPRPRPSPSPRP	-0.218
RRIRPRPPRLPRPRPRPNEYPRP	-0.783
RRIRCRPPRLPRPRPRPYQLPRP	-0.119
RRIRIRPPRLPRPRPRPWCSPRP	-0.412
RRIRHRPPRLPRPRPRPPLKPRP	-0.00744
RRIRDRPPRLPRPRPRPMSDPRP	1.13
RRIRHRPPRLPRPRPRPCAQPRP	0.000337
RRIRGRPPRLPRPRPRPRNAPRP	0.619
RRIRTRPPRLPRPRPRPHNLPRP	-0.274
RRIRPRPPRLPRPRPRPSDMPRP	-0.273
RRIRMRPPRLPRPRPRPGQMPRP	0.123
RRIRLRPPRLPRPRPRPDHSPRP	-0.0489
RRIRQRPPRLPRPRPRPCPWPRP	0.0978
RRIRYRPPRLPRPRPRPSVRPRP	-0.301
RRIRFRPPRLPRPRPRPGAQPRP	0.247
RRIRFRPPRLPRPRPRPPVDPRP	0.41
RRIRKRPPRLPRPRPRPFSGPRP	-0.172
RRIRHRPPRLPRPRPRPAGTPRP	-0.04
RRIRRRPPRLPRPRPRPKNWPRP	0.381
RRIRQRPPRLPRPRPRPVEGPRP	0.294
RRIRDRPPRLPRPRPRPSDNPRP	-0.0807
RRIRWRPPRLPRPRPRPNSTPRP	-0.326
RRIRNRPPRLPRPRPRPCNHPRP	-0.298
